# Results taken from US20250084126A1, “PEPTIDE AND COMPOSITION” (OSAKA UNIVERSITY, priority 2021, published 2025).
# Legend:
# [1] = test system: exposed pulp of rat maxillary first molars; assay: Direct pulp capping experiment using S100-A7 and S100-A7 reacted with MMP20; assay type: in vivo; conditions: rat molar, gelatin sponge with 20 μl of 1 μg/ml in PBS, 4 weeks after pulp capping, n=3
# Description: Eight-week-old male Wistar rats were injected intraperitoneally with pentobarbital sodium (SomnoPentyl (Trade Mark), Kyoritsu Seiyaku Corporation, Tokyo) (30 mg/kg) as general anesthesia, and carprofen (Rimadyl®, Pfizer, USA) (3 mg/kg) was administered for pain relief. The tooth to be treated was isolated by rubber dam dry field technique, and a surface and surrounding tissue of the tooth were cleaned with an alcohol-soaked cotton ball, and then a cavity was formed using the following method based on the report by Komichi et al. [Non Patent Literature 1]. […] Maxillas, including the test teeth, were then resected and soft tissues were removed, and evaluated by the following methods. […]
# Image analysis using the micro-CT (R-mCT2™M, Rigaku Corporation, Tokyo) was performed for quantitative evaluation of the formed tertiary dentin in the samples after the direct pulp capping. […] A CT value equivalent to that of the primary dentin was set as a threshold for extracting the tertiary dentin, and the area of the newly formed tertiary dentin was calculated from a binarized image. The area of the newly formed tertiary dentin was measured in each section, and the volume of the newly formed tertiary dentin was calculated by summing all of the measurements. […]
# [2] = test system: pulp cells; conditions: reported in Non Patent Literature 1; cited from earlier work
# [3] = test system: exposed pulp; conditions: rat in vivo, reported in Non Patent Literature 1; cited from earlier work
molecule,measurement,setting,value
"S100-A7: Protein S100-A7 (PROSPEC, Israel), human-derived Protein S100 (protein, UniProt P31151 2-101, looked up) Protein S100-A7: SNTQAERSIIGMIDMFHKYTRRDDKIEKPSLLTMMKENFPNFLSACDKKGTNYLADVFEKKDKNEDKKIDFSEFLSLLGDIATDYHKQSHGAAPCSGGSQ",tertiary dentin formation (micro-CT analysis),[1],completely covering the exposed region of pulp
same,effect on pulp cells in vitro,[2],"activates proliferation, differentiation, and mineralization abilities"
same,tertiary dentin induction in the direct pulp capping experiment,[3],completely covers the surface of the exposed pulp
